From patent US20070231329A1

Key:
[1] = molecular target: extracellular region of human V158 FcγRIIIa with C-terminal 6x His-tag and GST-tag (human) (UniProt P08637); assay: SPR
[2] = molecular target: extracellular region of human V158 FcγRIIIa with C-terminal 6x His-tag and GST-tag (human) (UniProt P08637); assay: SPR, His-tagged receptor immobilized, antibody flowed
[3] = molecular target: extracellular region of human F158 FcγRIIIa with C-terminal 6x His-tag and GST-tag (human) (UniProt P08637); assay: SPR, receptor immobilized, antibody flowed
[4] = molecular target: FcγRIIIa on human PBMCs expressing heterozygous V158/F158 FcγRIIIa (human) (UniProt P08637); assay: cell-based or functional assay

Sequence of extracellular region of human F158 FcγRIIIa with C-terminal 6x His-tag and GST-tag (human) (P08637 17-208, chain 1 of 2): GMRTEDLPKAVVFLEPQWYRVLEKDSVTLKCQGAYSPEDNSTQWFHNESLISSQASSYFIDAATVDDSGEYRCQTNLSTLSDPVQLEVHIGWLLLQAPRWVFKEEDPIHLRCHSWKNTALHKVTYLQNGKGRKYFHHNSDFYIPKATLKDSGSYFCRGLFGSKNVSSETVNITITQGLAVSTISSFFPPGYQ
Sequence of extracellular region of human F158 FcγRIIIa with C-terminal 6x His-tag and GST-tag (human) (P08515 whole entry, chain 2 of 2, further chain): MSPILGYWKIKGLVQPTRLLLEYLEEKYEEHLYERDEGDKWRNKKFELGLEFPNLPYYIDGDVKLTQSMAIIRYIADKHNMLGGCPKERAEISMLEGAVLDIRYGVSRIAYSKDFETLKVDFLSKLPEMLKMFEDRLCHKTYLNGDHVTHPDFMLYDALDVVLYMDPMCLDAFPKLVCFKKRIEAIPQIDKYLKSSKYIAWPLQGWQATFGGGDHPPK
Sequence of extracellular region of human V158 FcγRIIIa with C-terminal 6x His-tag and GST-tag (human) (P08637 17-208 F176V, chain 1 of 2): as the sequence (P08637 17-208, chain 1 of 2) above, with F160V counted along it
Sequence of extracellular region of human V158 FcγRIIIa with C-terminal 6x His-tag and GST-tag (human) (P08515 whole entry, chain 2 of 2, further chain): as the sequence (P08515 whole entry, chain 2 of 2, further chain) above

Row | Substance | Fold WT V158 FcγRIIIa [1] | Kd [2] | Kd [3] | other results
1 | E272R alemtuzumab (antibody) | 1.38 fold | – | – | –
2 | E283H alemtuzumab (antibody) | 2.31 fold | – | – | –
3 | I332E alemtuzumab (antibody) | – | 31 nM | 72 nM | –
4 | S239D/I332E alemtuzumab (antibody) | – | – | – | ADCC, DoHH-2 target cells: EC50 [4]: 3 ng/mL; ADCC, DoHH-2 target cells: Fold WT [4]: 3.3 fold; ADCC, DoHH-2 target cells: log (EC50) [4]: 0.49 log (ng/ml)
5 | S298A alemtuzumab (antibody) | – | 52 nM | 285 nM | –
6 | S298A/E333A/K334A alemtuzumab (antibody) | – | 39 nM | 156 nM | –
7 | S304T alemtuzumab (antibody) | 12.8 fold | – | – | –
8 | V264I alemtuzumab (antibody) | – | 64 nM | 550 nM | –
9 | V264I/I332E alemtuzumab (antibody) | – | 17 nM | 52 nM | ADCC, DoHH-2 target cells: EC50 [4]: 4 ng/mL; ADCC, DoHH-2 target cells: log (EC50) [4]: 0.6 log (ng/ml)
10 | V284E alemtuzumab (antibody) | 1.51 fold | – | – | –
